{
  "source": "paper PMC8712213",
  "about": "(Nature, 2020)",
  "target": "ALG6 from Saccharomyces cerevisiae (tag-cleaved) (S. cerevisiae, UniProt Q12001)",
  "sequence (Q12001 whole entry)": "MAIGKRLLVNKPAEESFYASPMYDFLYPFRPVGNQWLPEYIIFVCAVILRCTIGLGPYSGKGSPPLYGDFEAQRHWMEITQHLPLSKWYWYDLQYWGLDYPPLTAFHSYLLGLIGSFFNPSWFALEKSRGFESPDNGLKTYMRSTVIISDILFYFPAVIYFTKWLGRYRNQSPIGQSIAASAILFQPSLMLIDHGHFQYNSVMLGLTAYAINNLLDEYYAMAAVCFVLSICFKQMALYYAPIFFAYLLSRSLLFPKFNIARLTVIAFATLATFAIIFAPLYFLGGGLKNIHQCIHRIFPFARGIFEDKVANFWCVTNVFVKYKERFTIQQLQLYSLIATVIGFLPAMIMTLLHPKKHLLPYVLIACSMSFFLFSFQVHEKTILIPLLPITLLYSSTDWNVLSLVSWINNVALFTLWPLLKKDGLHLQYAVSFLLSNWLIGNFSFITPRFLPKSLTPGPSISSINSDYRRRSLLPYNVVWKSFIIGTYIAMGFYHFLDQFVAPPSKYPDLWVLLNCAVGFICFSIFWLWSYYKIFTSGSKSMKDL",
  "assay": "SEC",
  "data": [
    {"binder": "6AG9-Fab (Fab, V domains shown) VH: EVQLVESGGGLVQPGGSLRLSCAASGFNVYSSSIHWVRQAPGKGLEWVASISSYSGYTSYADSVKGRFTISADTSKNTAYLQMNSLRAEDTAVYYCAREYWSWYSYSYGIDYWGQGTLVTVSS VL: DIQMTQSPSSLSASVGDRVTITCRASQSVSSAVAWYQQKPGKAPKLLIYSASSLYSGVPSRFSGSRSGTDFTLTISSLQPEDFATYYCQQSYWVGYPITFGQGTKVEIK", "values": [
      {"measurement": "binding result", "result": "binds"}
    ]}
  ]
}
